These results are taken from PMC1523230, “Structural Organization of the 19S Proteasome Lid: Insights from MS of Intact Complexes” (PLoS Biology, 2006).

B1: Sem1 (natural protein, S. cerevisiae, UniProt O94742 2-89, looked up)
chain: STDVAAAQAQSKIDLTKKKNEEINKKSLEEDDEFEDFPIDTWANGETIKSNAVTQTNIWEENWDDVEVDDDFTNELKAELDRYKRENQ
modifications: N-terminal amino group acetylated (initiator methionine removed)
notes: Sem1, subunit of the 19S proteasome lid, S. cerevisiae (10 kDa); the initiator methionine is removed; source: endogenous, S. cerevisiae strain RJD2909; in lysate, then co-purified with Rpn11^H12 as the 19S lid (Ni-NTA, Sephacryl S-400 gel filtration)
B2: Rpn5 (natural protein, S. cerevisiae, UniProt Q12250 1-445, looked up)
chain: MSRDAPIKADKDYSQILKEEFPKIDSLAQNDCNSALDQLLVLEKKTRQASDLASSKEVLAKIVDLLASRNKWDDLNEQLTLLSKKHGQLKLSIQYMIQKVMEYLKSSKSLDLNTRISVIETIRVVTENKIFVEVERARVTKDLVEIKKEEGKIDEAADILCELQVETYGSMEMSEKIQFILEQMELSILKGDYSQATVLSRKILKKTFKNPKYESLKLEYYNLLVKISLHKREYLEVAQYLQEIYQTDAIKSDEAKWKPVLSHIVYFLVLSPYGNLQNDLIHKIQNDNNLKKLESQESLVKLFTTNELMRWPIVQKTYEPVLNEDDLAFGGEANKHHWEDLQKRVIEHNLRVISEYYSRITLLRLNELLDLTESQTETYISDLVNQGIIYAKVNRPAKIVNFEKPKNSSQLLNEWSHNVDELLEHIETIGHLITKEEIMHGLQAK
notes: Rpn5, subunit of the 19S proteasome lid, S. cerevisiae; source: endogenous, S. cerevisiae strain RJD2909; in lysate, then co-purified with Rpn11^H12 as the 19S lid (Ni-NTA, Sephacryl S-400 gel filtration)
B3: Rpn11^H12 (natural protein, S. cerevisiae, UniProt P43588 1-306, looked up)
chain: MERLQRLMMNSKVGSADTGRDDTKETVYISSIALLKMLKHGRAGVPMEVMGLMLGEFVDDYTVNVVDVFAMPQSGTGVSVEAVDDVFQAKMMDMLKQTGRDQMVVGWYHSHPGFGCWLSSVDVNTQKSFEQLNSRAVAVVVDPIQSVKGKVVIDAFRLIDTGALINNLEPRQTTSNTGLLNKANIQALIHGLNRHYYSLNIDYHKTAKETKMLMNLHKEQWQSGLKMYDYEEKEESNLAATKSMVKIAEQYSKRIEEEKELTEEELKTRYVGRQDPKKHLSETADETLENNIVSVLTAGVNSVAIK
notes: Rpn11, subunit of the 19S proteasome lid, S. cerevisiae; tagging cassette of plasmid pT2H12 integrated directly before the stop codon of RPN11; also called modified Rpn11; source: S. cerevisiae strain RJD2909 (tag integrated at the chromosomal RPN11 locus); in lysate, then purified as the 19S lid (Ni-NTA, Sephacryl S-400 gel filtration); not shown: His12, C-terminal, kept
B4: Rpn8 (natural protein, S. cerevisiae, UniProt Q08723 1-338, looked up)
chain: MSLQHEKVTIAPLVLLSALDHYERTQTKENKRCVGVILGDANSSTIRVTNSFALPFEEDEKNSDVWFLDHNYIENMNEMCKKINAKEKLIGWYHSGPKLRASDLKINELFKKYTQNNPLLLIVDVKQQGVGLPTDAYVAIEQVKDDGTSTEKTFLHLPCTIEAEEAEEIGVEHLLRDVRDQAAGGLSIRLTNQLKSLKGLQSKLKDVVEYLDKVINKELPINHTILGKLQDVFNLLPNLGTPDDDEIDVENHDRINISNNLQKALTVKTNDELMVIYISNLVRSIIAFDDLIENKIQNKKIQEQRVKDKQSKVSDDSESESGDKEATAPLIQRKNKKN
notes: Rpn8, subunit of the 19S proteasome lid, S. cerevisiae; source: endogenous, S. cerevisiae strain RJD2909; in lysate, then co-purified with Rpn11^H12 as the 19S lid (Ni-NTA, Sephacryl S-400 gel filtration)

For the test “Rpn11^H12”, the target named is B3. Nature of the test: affinity purification with mass spectrometry; Rpn11^H12 held on Ni-NTA from yeast lysate, gel filtration; subunits identified by MALDI-TOF/TOF peptide mapping and database search. Particulars: partners not purified.
Test [1] concerns the target T1, Rpn7 (S. cerevisiae, UniProt Q06103 1-429).
T1 construct: Rpn7, subunit of the 19S proteasome lid, S. cerevisiae; source: endogenous, S. cerevisiae strain RJD2909; in lysate, then co-purified with Rpn11^H12 as the 19S lid (Ni-NTA, Sephacryl S-400 gel filtration)
T1 sequence (looked up): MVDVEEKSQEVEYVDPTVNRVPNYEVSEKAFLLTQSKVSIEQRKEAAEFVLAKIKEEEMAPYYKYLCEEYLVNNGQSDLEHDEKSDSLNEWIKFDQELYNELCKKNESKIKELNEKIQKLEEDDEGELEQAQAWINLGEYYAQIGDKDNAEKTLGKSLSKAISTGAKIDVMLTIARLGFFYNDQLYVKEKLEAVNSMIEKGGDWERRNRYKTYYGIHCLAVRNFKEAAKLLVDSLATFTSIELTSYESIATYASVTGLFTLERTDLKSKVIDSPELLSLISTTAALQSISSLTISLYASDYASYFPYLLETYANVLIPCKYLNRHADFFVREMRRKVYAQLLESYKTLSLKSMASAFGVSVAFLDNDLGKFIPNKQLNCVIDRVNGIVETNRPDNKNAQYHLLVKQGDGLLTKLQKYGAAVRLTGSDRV
Nature of the test: cross-linking; purified lid 4.8 uM, BS3 at a ratio of 1:50, 2 h on ice, 200 mM NaCl, 50 mM HEPES pH 7.5; bands A-F of a Bis-Tris 4-12% denaturing gel digested with trypsin and identified by MALDI-TOF/TOF MS and MS/MS. Particulars: both partners purified.

The target in test [2] is T2, Rpn3 (S. cerevisiae, UniProt P40016 17-523).
T2 construct: Rpn3, subunit of the 19S proteasome lid, S. cerevisiae; from the measured mass the first 16 residues are truncated; source: endogenous, S. cerevisiae strain RJD2909; in lysate, then co-purified with Rpn11^H12 as the 19S lid (Ni-NTA, Sephacryl S-400 gel filtration)
T2 sequence (looked up): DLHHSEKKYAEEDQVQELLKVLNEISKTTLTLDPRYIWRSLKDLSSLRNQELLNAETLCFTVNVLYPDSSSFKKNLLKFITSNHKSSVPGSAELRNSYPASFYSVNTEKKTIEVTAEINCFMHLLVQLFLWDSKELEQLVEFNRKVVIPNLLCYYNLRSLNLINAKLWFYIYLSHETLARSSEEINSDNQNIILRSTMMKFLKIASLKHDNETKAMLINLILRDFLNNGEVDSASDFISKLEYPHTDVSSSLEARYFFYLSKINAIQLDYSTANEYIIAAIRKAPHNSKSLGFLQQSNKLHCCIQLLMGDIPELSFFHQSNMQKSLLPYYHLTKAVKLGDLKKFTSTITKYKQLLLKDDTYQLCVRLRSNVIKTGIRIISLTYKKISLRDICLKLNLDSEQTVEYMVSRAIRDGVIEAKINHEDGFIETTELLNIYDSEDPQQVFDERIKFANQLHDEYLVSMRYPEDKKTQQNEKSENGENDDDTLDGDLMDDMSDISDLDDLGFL
Described as above. To be noted: both partners purified.

The target of test [3] is T1, Rpn7. Nature of the test: affinity purification with mass spectrometry; Rpn11^H12 held on Ni-NTA from yeast lysate, gel filtration; subunits identified by MALDI-TOF/TOF peptide mapping and database search. To be noted: partners not purified.
The test “Rpn8” addresses B4. The description is as above. Particulars: partners not purified.
Test [4] has as its target T2, Rpn3. The test can be described thus: native MS; intact endogenous 19S lid purified through Rpn11^H12, buffer exchanged into 1 M ammonium acetate, nano-electrospray on a high-mass Q-TOF; MS/MS of the 47+ charge state at 100 and 120 V. To be noted: both partners purified.
In test [5] the target is B2. Described as above. To be noted: both partners purified.
The next test addresses T3, Rpn9 (S. cerevisiae, UniProt Q04062 1-393).
T3 construct: Rpn9, subunit of the 19S proteasome lid, S. cerevisiae; source: endogenous, S. cerevisiae strain RJD2909; in lysate, then co-purified with Rpn11^H12 as the 19S lid (Ni-NTA, Sephacryl S-400 gel filtration)
T3 sequence (looked up): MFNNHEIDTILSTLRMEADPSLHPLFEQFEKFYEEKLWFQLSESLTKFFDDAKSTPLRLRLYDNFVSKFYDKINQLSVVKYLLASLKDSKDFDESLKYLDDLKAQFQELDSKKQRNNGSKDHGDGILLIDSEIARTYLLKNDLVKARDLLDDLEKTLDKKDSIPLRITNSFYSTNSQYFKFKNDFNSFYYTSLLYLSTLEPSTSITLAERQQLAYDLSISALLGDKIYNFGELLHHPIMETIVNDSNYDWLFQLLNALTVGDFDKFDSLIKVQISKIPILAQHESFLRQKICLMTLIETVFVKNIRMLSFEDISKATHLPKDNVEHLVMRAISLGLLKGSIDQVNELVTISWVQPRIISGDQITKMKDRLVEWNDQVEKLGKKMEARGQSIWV
The test can be described thus: native MS; 185-kDa subcomplex present in the solution of the purified lid, 1 M ammonium acetate; 34+ charge state isolated, MS/MS with argon at 130 V. To be noted: both partners purified.

Another test deals with T4, Rpn6 (S. cerevisiae, UniProt Q12377 1-434).
T4 construct: Rpn6, subunit of the 19S proteasome lid, S. cerevisiae; Present in substoichiometric amounts: a part of the purified lid complexes lacks Rpn6; also called Rnp6; source: endogenous, S. cerevisiae strain RJD2909; in lysate, then co-purified with Rpn11^H12 as the 19S lid (Ni-NTA, Sephacryl S-400 gel filtration)
T4 sequence (looked up): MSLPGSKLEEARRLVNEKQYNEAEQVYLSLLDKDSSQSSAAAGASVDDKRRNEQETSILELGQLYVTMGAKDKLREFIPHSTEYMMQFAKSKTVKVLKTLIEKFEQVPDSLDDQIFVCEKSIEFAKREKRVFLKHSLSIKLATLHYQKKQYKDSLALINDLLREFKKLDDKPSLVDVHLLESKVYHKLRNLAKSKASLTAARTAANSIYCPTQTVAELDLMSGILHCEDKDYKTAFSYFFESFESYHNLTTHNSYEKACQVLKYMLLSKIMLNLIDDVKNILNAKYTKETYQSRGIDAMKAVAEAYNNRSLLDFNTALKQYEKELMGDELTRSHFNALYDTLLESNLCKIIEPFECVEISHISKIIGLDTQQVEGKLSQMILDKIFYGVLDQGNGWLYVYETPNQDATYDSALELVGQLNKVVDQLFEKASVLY
The description is as above. Particulars: both partners purified.

For test [6], the target named is B2. Nature of the test: cross-linking; purified lid 4.8 uM, BS3 at a ratio of 1:50, 2 h on ice, 200 mM NaCl, 50 mM HEPES pH 7.5; bands A-F of a Bis-Tris 4-12% denaturing gel digested with trypsin and identified by MALDI-TOF/TOF MS and MS/MS. Particulars: both partners purified.

On to B1, for which the binding result with Rpn11^H12, with Rpn7 [1] and with Rpn3 [2] was “binds” in each case.
In the case of B2, the binding result with Rpn3 [2] was “binds”.
For the molecule B3, the binding result in the test with Rpn7 [3], in the test with Rpn8, with Rpn3 [4] and in the test with Rpn5 [5] was “binds” in each case.
As for B4, the binding result with Rpn9, with Rpn6 and with Rpn5 [6] was “binds” each time.
